This passage reports binding efficiency (percent of protein bound to resin) and percent unbound results from US20220056072A1.

Assay [1] addresses High Capacity NeutrAvidin Agarose Resin (UniProt P02701). As to the kind of experiment: pull-down on NeutrAvidin Agarose resin, 1 uM protein, 2 hrs at 4 C; bound fraction from A280 of flow-through and wash.
For assay [2] the target is unchanged. The assay can be described thus: pull-down on NeutrAvidin Agarose resin, SDS-PAGE of the fractions.

Chain of UniProt P02701 (P02701 25-152): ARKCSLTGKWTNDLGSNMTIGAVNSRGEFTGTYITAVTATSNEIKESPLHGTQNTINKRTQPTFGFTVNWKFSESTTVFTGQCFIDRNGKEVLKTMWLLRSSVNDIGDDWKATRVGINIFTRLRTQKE

IPL biotin-labeled mRuby3 returned a binding efficiency (percent of protein bound to resin) in assay [1] of 65%. The same substance displayed a percent unbound in assay [2] of 35%. Turning to unlabeled mRuby3, in assay [1], the binding efficiency (percent of protein bound to resin) came to 10%.
